Experimental data as given in patent publication US10047131B2, “Peptides and combination of peptides for use in immunotherapy against ovarian cancer and other cancers” (immatics biotechnologies GmbH, priority 2015, dated 2018).

Biological target: HLA-A*02:01 (Homo sapiens, UniProt P04439, D140Y/D185E/D98H/E176V/E277Q/G131W/G231S/I119V/I121R/I166T/I218V/L300P/L318F/N151K/N90K/P208A/P217A/Q86G/Q94H/R138H/R169H/T345S)
Test: MHC binding assay (UV-ligand exchange, ELISA of exchange yield)
Details: binding to HLA-A*02:01, UV-ligand exchange
Text: Candidate peptides for T cell based therapies according to the present invention were further tested for their MHC binding capacity (affinity). The individual peptide-MHC complexes were produced by UV-ligand exchange, where a UV-sensitive peptide is cleaved upon UV-irradiation, and exchanged with the peptide of interest as analyzed. Only peptide candidates that can effectively bind and stabilize the peptide-receptive MHC molecules prevent dissociation of the MHC complexes. To determine the yield of the exchange reaction, an ELISA was performed based on the detection of the light chain (p2m) of stabilized MHC complexes. The assay was performed as generally described in Rodenko et al. (Rodenko et al., 2006).
96 well MAXISorp plates (NUNC) were coated over night with 2 μg/ml streptavidin in PBS at room temperature, washed 4× and blocked for 1 h at 37° C. in 2% BSA containing blocking buffer. […] Peptide-MHC monomers of the UV-exchange reaction were diluted 100 fold in blocking buffer. Samples were incubated for 1h at 37° C., washed four times, incubated with 2 μg/ml HRP conjugated anti-β2m for 1h at 37° C., washed again and detected with TMB solution that is stopped with […]. Absorption was measured at 450 nm. Candidate peptides that show a high exchange yield (preferably higher than 50%, most preferred higher than 75%) are generally preferred for a generation and production of antibodies or fragments thereof, and/or T cell receptors or fragments thereof, as they show sufficient avidity to the MHC molecules and prevent dissociation of the MHC complexes.

Row | Substance | Peptide exchange (MHC class I binding score, peptide exchange yield)
1 | 68 (SLMELPRGLFL; listed as Homo sapiens) [compound 68] | “++++” (≥75% = ++++)
2 | 71 (GILARIASV; listed as Homo sapiens) [compound 71] | “+++” (≥50 = +++)
3 | 75 (GLLEVMVNL; listed as Homo sapiens) [compound 75] | “+++” (≥50 = +++)
4 | 76 (ILIDSIYKV; listed as Homo sapiens) [compound 76] | “+++” (≥50 = +++)
5 | 78 (SLFSSLEPQIQPV; listed as Homo sapiens) [compound 78] | “+++” (≥50 = +++)
6 | 79 (SLFIGEKAVLL; listed as Homo sapiens) [compound 79] | “+++” (≥50 = +++)
7 | 82 (FLSSVTYNL; listed as Homo sapiens) [compound 82] | “+++” (≥50 = +++)
8 | 85 (KMSELRVTL; listed as Homo sapiens) [compound 85] | “+++” (≥50 = +++)
9 | 86 (NLIGKIENV; listed as Homo sapiens) [compound 86] | “+++” (≥50 = +++)
10 | 87 (ALPEAPAPLLPHIT; listed as Homo sapiens) [compound 87] | “++” (≥20% = ++)
11 | 88 (FLLVGDLMAV; listed as Homo sapiens) [compound 88] | “+++” (≥50 = +++)
12 | 89 (YILPTETIYV; listed as Homo sapiens) [compound 89] | “++++” (≥75% = ++++)
13 | 90 (TLLQIIETV; listed as Homo sapiens) [compound 90] | “+++” (≥50 = +++)
14 | 91 (IMQDFPAEIFL; listed as Homo sapiens) [compound 91] | “++++” (≥75% = ++++)
15 | 92 (YLIPFTGIVGL; listed as Homo sapiens) [compound 92] | “++” (≥20% = ++)
16 | 93 (LLQAIKLYL; listed as Homo sapiens) [compound 93] | “++” (≥20% = ++)
17 | 94 (YLIDIKTIAI; listed as Homo sapiens) [compound 94] | “++” (≥20% = ++)
18 | 96 (YIFTDNPAAV; listed as Homo sapiens) [compound 96] | “+++” (≥50 = +++)
19 | 97 (SLINGSFLV; listed as Homo sapiens) [compound 97] | “+++” (≥50 = +++)
20 | 98 (LIIDQADIYL; listed as Homo sapiens) [compound 98] | “+++” (≥50 = +++)
21 | 101 (ILVGGGALATV; listed as Homo sapiens) [compound 101] | “+++” (≥50 = +++)

Row | Substance | Peptide exchange (MHC class I binding score, peptide exchange yield)
22 | 102 (YLFESEGLVL; listed as Homo sapiens) [compound 102] | “+++” (≥50 = +++)
23 | 104 (STMEQNFLL; listed as Homo sapiens) [compound 104] | “++++” (≥75% = ++++)
24 | 106 (LLYDAVHIVSV; listed as Homo sapiens) [compound 106] | “+++” (≥50 = +++)
25 | 109 (IILSILEQA; listed as Homo sapiens) [compound 109] | “++++” (≥75% = ++++)
26 | 111 (YVWGFYPAEV; listed as Homo sapiens) [compound 111] | “+++” (≥50 = +++)
27 | 115 (AIAGAGILYGV; listed as Homo sapiens) [compound 115] | “++” (≥20% = ++)
28 | 116 (YHIDEEVGF; listed as Homo sapiens) [compound 116] | “+” (≥10% = +)
29 | 117 (ILPDGEDFLAV; listed as Homo sapiens) [compound 117] | “+++” (≥50 = +++)
30 | 118 (KLIDNNINV; listed as Homo sapiens) [compound 118] | “+++” (≥50 = +++)
31 | 119 (FLYIGDIVSL; listed as Homo sapiens) [compound 119] | “++++” (≥75% = ++++)
32 | 120 (ALLGIPLTLV; listed as Homo sapiens) [compound 120] | “+++” (≥50 = +++)
33 | 121 (GVVDPRAISVL; listed as Homo sapiens) [compound 121] | “++” (≥20% = ++)
34 | 122 (FLLAEDDIYL; listed as Homo sapiens) [compound 122] | “+++” (≥50 = +++)
35 | 123 (NLWDLTDASVV; listed as Homo sapiens) [compound 123] | “+++” (≥50 = +++)
36 | 124 (ALYETELADA; listed as Homo sapiens) [compound 124] | “++” (≥20% = ++)
37 | 126 (VLAYFLPEA; listed as Homo sapiens) [compound 126] | “++++” (≥75% = ++++)
38 | 127 (KIGDEPPKV; listed as Homo sapiens) [compound 127] | “++” (≥20% = ++)
39 | 128 (YLFDDPLSAV; listed as Homo sapiens) [compound 128] | “++” (≥20% = ++)
40 | 129 (GLLDGGVDILL; listed as Homo sapiens) [compound 129] | “+++” (≥50 = +++)
41 | 130 (FLWNGEDSALL; listed as Homo sapiens) [compound 130] | “+++” (≥50 = +++)

Further lines, results first:

Row | Peptide exchange (MHC class I binding score, peptide exchange yield) | Substance
42 | “+++” (≥50 = +++) | 67 (TLLAEALVTV; listed as Homo sapiens) [compound 67]
43 | “+++” (≥50 = +++) | 69 (FQLDPSSGVLVTV; listed as Homo sapiens) [compound 69]
44 | “+++” (≥50 = +++) | 70 (GLLDYPVGV; listed as Homo sapiens) [compound 70]
45 | “+++” (≥50 = +++) | 72 (SLLELDGINL; listed as Homo sapiens) [compound 72]
46 | “+++” (≥50 = +++) | 73 (NIFDLQIYV; listed as Homo sapiens) [compound 73]
47 | “+++” (≥50 = +++) | 74 (ALLDPEVLSIFV; listed as Homo sapiens) [compound 74]
48 | “++++” (≥75% = ++++) | 77 (ILVEADGAWVV; listed as Homo sapiens) [compound 77]
49 | “++” (≥20% = ++) | 80 (FLYDNLVESL; listed as Homo sapiens) [compound 80]
50 | “++” (≥20% = ++) | 81 (FLFSQLQYL; listed as Homo sapiens) [compound 81]
51 | “+++” (≥50 = +++) | 83 (ILAPTVMMI; listed as Homo sapiens) [compound 83]
52 | “++” (≥20% = ++) | 84 (VTFGEKLLGV; listed as Homo sapiens) [compound 84]
53 | “+++” (≥50 = +++) | 95 (SVIPQIQKV; listed as Homo sapiens) [compound 95]
54 | “++” (≥20% = ++) | 99 (ALVSKGLATV; listed as Homo sapiens) [compound 99]
55 | “++++” (≥75% = ++++) | 100 (YLLSTNAQL; listed as Homo sapiens) [compound 100]
56 | “+++” (≥50 = +++) | 103 (TLAEEVVAL; listed as Homo sapiens) [compound 103]
57 | “+++” (≥50 = +++) | 107 (FLQPVDDTQHL; listed as Homo sapiens) [compound 107]
58 | “++++” (≥75% = ++++) | 108 (ALFPGVALLLA; listed as Homo sapiens) [compound 108]
59 | “+++” (≥50 = +++) | 110 (FLSQVDFEL; listed as Homo sapiens) [compound 110]
60 | “+++” (≥50 = +++) | 113 (GLLPTPLFGV; listed as Homo sapiens) [compound 113]
61 | “++” (≥20% = ++) | 114 (SLVGEPILQNV; listed as Homo sapiens) [compound 114]
62 | “+++” (≥50 = +++) | 125 (VQIHQVAQV; listed as Homo sapiens) [compound 125]
